Earlier results on one sequence are cited in PMC7249735.

The data set concerns RGNNV coat protein (RGNNV-CP), MBP fusion (red-spotted grouper nervous necrosis virus (RGNNV)). Particulars: PBS (137 mM NaCl, 2.7 mM KCl, 10 mM Na2HPO4, 1.8 mM KH2PO4, pH 7.4); ELASA 30 min at 4 C after 3% BSA block; sandwich capture in PBS, temperature not stated.

For orientation: Kd means the concentration at which binding is half-saturated. As for “TGTGTGTCTATTGTCTGTGGTTCATGTCAAGCTTATTTTCCACACACGGT [A10]”, the Kd is 4 nM.
